Measured values: US8580556B2, “Sulfonylurea-responsive repressor proteins” (E. I. du Pont de Nemours and Company, priority 2008, dated 2013)
Where a chain is given by its changes, count along the chain named.

B1: L6-5H06 (protein)
chain: MGSRLDKSKVINSALELLNEVGIEGLTTRKLAQKLGVEQPTLYWHVKNKRALLDALAIEMMDRHQTHICPLEGESWQDFLRNNAKSMRCALLSHRDGAKVCLGTRWTEKQYETAENMLAFLCQQGFSLENALYAVSAVRVFTLGCVLFDQELQVAKEERETPTTASMPPLVRQAWELKDHQGAEPAFLFGLELIICGLEKQLKCESGS
modifications: Sulfonylurea responsive repressor L6-5H06
B2: L6-6F07 (protein)
chain: B1 chain with Q65A, I68L, N83T, K109Q, T113S, V135M, L152S, V171L
modifications: Sulfonylurea responsive repressor L6-6F07
B3: L6-5H12 (protein)
chain: B1 chain with Q65A, I68Y, M117Q, V135M
modifications: Sulfonylurea responsive repressor L6-5H12

Test system: tetA promoter (PtetA)-lacZ reporter in E. coli KM3
Assay type: cell-based
Conditions: not given

Molecule | 0.2 ppm 48 hr/Control 84 hr
B1 | 2.7
B2 | 2.3
B3 | 4.2

Same assay, conditions: M9 assay plates, no inducer, 84 hr at 30° C., colony color intensity by ImageJ

Molecule | Control 84 hr (colony color intensity, background activity without inducer)
B1 | 5.1
B2 | 5.1
B3 | 5.7
